Measurements from publication PMC9538160.

Target: Human recombinant p65 protein (SinoBiological 12054-H09E) (human) (UniProt Q04206)
Experiment: BLI; Forte-Bio Octet Red; anti-p65 Ab (5 μg/mL) captured on Protein A biosensors, 25 μg/mL recombinant p65 bound to it, ICP22 in solution at 62.5, 125, 250, 500 or 1000 nM; PBS

Chain of UniProt Q04206 (Q04206 whole entry, stated change not applied): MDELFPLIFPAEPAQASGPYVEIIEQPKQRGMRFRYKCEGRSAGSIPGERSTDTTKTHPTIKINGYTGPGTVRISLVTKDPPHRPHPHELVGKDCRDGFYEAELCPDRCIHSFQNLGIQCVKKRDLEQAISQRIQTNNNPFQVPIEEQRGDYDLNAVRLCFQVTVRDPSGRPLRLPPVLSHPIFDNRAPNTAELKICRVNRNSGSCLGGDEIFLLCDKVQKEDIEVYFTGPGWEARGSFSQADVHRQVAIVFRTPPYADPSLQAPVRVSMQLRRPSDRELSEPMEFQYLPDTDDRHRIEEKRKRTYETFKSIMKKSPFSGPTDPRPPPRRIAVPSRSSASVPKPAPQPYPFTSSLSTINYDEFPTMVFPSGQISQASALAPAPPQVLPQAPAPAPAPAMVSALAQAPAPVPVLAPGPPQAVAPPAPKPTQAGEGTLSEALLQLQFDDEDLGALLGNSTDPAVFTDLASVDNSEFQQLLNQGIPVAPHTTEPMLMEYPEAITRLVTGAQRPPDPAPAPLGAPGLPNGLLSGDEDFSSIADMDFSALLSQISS

Q: “HA-tagged HSV-2 ICP22, purified (from UniProt P14379 1-197) (natural protein)” was tested. Which Kd did it give?
A: 218 nM
